From publication PMC3931814, “Dehydroepiandrosterone Sulfate (DHEAS) Stimulates the First Step in the Biosynthesis of Steroid Hormones” (PLoS ONE, 2014)

Assays:
Settings in all cases: both partners purified
CYP11A1 [1] = target: T1, CYP11A1 (UniProt P00189 40-520); test: SPR; Biacore3000; CYP11A1 injected at 5-7.5 nM in HBS-EP buffer; bound CYP11A1 removed with 2 mM NaOH; in the presence of cholesterol and DHEAS (CYP11A1:cholesterol:DHEAS 1:10:50 by the methods, 1:15:75 by the legend of Figure 7); Biaeval 4.1
T1 construct: CYP11A1 (cholesterol side-chain cleavage cytochrome P450); Single band at 55 kDa on SDS gel; Heme protein; also called recombinant CYP11A1; His-tagged CYP11A1; source: E. coli C43(DE3), co-transformed with groEL/groES chaperones, purified (IMAC Ni-NTA, SP-sepharose)
T1 sequence (looked up): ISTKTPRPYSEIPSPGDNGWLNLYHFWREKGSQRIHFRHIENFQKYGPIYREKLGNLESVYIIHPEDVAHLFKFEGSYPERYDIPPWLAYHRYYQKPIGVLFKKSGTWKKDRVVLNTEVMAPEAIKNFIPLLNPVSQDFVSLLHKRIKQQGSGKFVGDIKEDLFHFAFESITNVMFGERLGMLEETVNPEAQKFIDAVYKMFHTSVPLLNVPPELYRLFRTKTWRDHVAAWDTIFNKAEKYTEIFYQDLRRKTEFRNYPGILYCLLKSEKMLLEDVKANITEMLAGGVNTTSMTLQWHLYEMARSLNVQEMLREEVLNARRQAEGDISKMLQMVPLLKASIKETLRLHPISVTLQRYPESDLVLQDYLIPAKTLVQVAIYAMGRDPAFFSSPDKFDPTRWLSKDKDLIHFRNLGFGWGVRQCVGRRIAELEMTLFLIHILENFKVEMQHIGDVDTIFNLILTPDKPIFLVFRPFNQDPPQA

CYP11A1 [2] = target: T1, CYP11A1; test: SPR; Biacore3000; CYP11A1 injected at 5-7.5 nM in HBS-EP buffer, at least three times each; bound CYP11A1 removed with 2 mM NaOH; in absence of cholesterol; Biaeval 4.1
CYP11A1 [3] = target: T1, CYP11A1; test: as above; set-up: scale not given here
CYP11A1 [4] = target: T1, CYP11A1; test: SPR; Biacore3000; CYP11A1 injected at 5-7.5 nM in HBS-EP buffer; bound CYP11A1 removed with 2 mM NaOH; in the presence of cholesterol (CYP11A1:cholesterol 1:10 by the methods, 1:15 by the legend of Figure 7); Biaeval 4.1
CYP11A1 [5] = target: T1, CYP11A1; test: as above; set-up: scale not given here

B1: bovine adrenodoxin (natural protein, UniProt P00257 59-186, looked up)
chain: SSSEDKITVHFINRDGETLTTKGKIGDSLLDVVVQNNLDIDGFGACEGTLACSTCHLIFEQHIFEKLEAITDEENDMLDLAYGLTDRSRLGCQICLTKAMDNMTVRVPDAVSDARESIDMGMNSSKIE
notes: adrenodoxin (Adx), bovine, the ferredoxin that transfers electrons to CYP11A1; [2Fe-2S] protein; also called Adx
Work on B1 yielded a Kd (CYP11A1 [1]) of 2.4 ± 0.05 nM, a Kd (CYP11A1 [2]) of 3.8 ± 0.55 nM and a koff (CYP11A1 [3]) of 2.4 ± 0.99 s⁻¹. The Kd (CYP11A1 [4]) was 3 ± 0.35 nM and the koff (CYP11A1 [5]) was 2.8 ± 0.09 s⁻¹.
